# Laboratory results from US20140030245.
# T1: Myc-tagged Chk1 C-terminal fragment C5, O14757
# T1 chain: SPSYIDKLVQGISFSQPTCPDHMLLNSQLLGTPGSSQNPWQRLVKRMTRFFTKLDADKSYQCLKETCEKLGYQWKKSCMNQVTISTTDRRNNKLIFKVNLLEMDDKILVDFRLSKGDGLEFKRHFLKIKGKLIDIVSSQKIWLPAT
# Biological target: T1, Myc-tagged Chk1 C-terminal fragment C5, …
protein,measurement,value
endogenous Chk1 (protein) MAVPFVEDWDLVQTLGEGAYGEVQLAVNRVTEEAVAVKIVDMKRAVDCPENIKKEICINKMLNHENVVKFYGHRREGNIQYLFLEYCSGGELFDRIEPDIGMPEPDAQRFFHQLMAGVVYLHGIGITHRDIKPENLLLDERDNLKISDFGLATVFRYNNRERLLNKMCGTLPYVAPELLKRREFHAEPVDVWSCGIVLTAMLAGELPWDQPSDSCQEYSDWKEKKTYLNPWKKIDSAPLALLHKILVENPSARITIPDIKKDRWYNKPLKKGAKRPRVTSGGVSESPSGFSKHIQSNLDFSPVNSASSEENVKYSSSQPEPRTGLSLWDTSPSYIDKLVQGISFSQPTCPDHMLLNSQLLGTPGSSQNPWQRLVKRMTRFFTKLDADKSYQCLKETCEKLGYQWKKSCMNQVTISTTDRRNNKLIFKVNLLEMDDKILVDFRLSKGDGLEFKRHFLKIKGKLIDIVSSQKVWLPAT,"phosphorylation of endogenous Chk1 proteins (immunoblot, HeLa)","overexpression of the C5 fragment and to a lesser extent, the entire C-terminus, induced strong phosphorylation of endogenous Chk1 proteins"
same,"phosphorylation of endogenous Chk1 under normal growth conditions (immunoblot, HEK293T)","expression of the C5 fragment, and to a lesser extent, the C6 fragment, but not other small fragments, induced phosphorylation of endogenous Chk1 under normal growth conditions"
